B1: EMSA 25mer (ssDNA)
DNA: GCTTGCTAGGACGGATCGCTCGAGG
B2: poly(dT) 30mer (ssDNA)
DNA: TTTTTTTTTTTTTTTTTTTTTTTTTTTTTT

How the values were obtained:
[1] = molecular target: HELB (DNA helicase B);Human RPA (hRPA) (Homo sapiens;Homo sapiens, UniProt Q8NG08;P27694;P15927;P35244 1-1087;1-616;1-270;1-121, |); experiment: EMSA; HELB supershifts the human RPA-DNA complex; EMSA: 2.5 nM DNA (5 nM in Fig. S1F); PIFE: 2 nM DNA for Kd; buffer, salt, pH and temperature not in the supplied material; optical tweezers at room temperature; conditions: protein: recombinant;recombinant; copies: 1;1;1;1; label: 5'-Cy5; single strand
Human RPA (hRPA) = Human RPA (hRPA) (Homo sapiens, UniProt P27694;P15927;P35244 1-616;1-270;1-121); experiment: EMSA; human RPA alone; EMSA: 2.5 nM DNA (5 nM in Fig. S1F); PIFE: 2 nM DNA for Kd; buffer, salt, pH and temperature not in the supplied material; optical tweezers at room temperature; conditions: protein: recombinant; copies: 1;1;1; label: 5'-Cy5; single strand
HELB (DNA helicase B) = HELB (DNA helicase B) (Homo sapiens, UniProt Q8NG08 1-1087); experiment: PIFE fluorescence; EMSA: 2.5 nM DNA (5 nM in Fig. S1F); PIFE: 2 nM DNA for Kd; buffer, salt, pH and temperature not in the supplied material; optical tweezers at room temperature; conditions: protein: recombinant; label: 3'-Cy3; single strand
Chain of HELB (DNA helicase B) (Q8NG08 whole entry): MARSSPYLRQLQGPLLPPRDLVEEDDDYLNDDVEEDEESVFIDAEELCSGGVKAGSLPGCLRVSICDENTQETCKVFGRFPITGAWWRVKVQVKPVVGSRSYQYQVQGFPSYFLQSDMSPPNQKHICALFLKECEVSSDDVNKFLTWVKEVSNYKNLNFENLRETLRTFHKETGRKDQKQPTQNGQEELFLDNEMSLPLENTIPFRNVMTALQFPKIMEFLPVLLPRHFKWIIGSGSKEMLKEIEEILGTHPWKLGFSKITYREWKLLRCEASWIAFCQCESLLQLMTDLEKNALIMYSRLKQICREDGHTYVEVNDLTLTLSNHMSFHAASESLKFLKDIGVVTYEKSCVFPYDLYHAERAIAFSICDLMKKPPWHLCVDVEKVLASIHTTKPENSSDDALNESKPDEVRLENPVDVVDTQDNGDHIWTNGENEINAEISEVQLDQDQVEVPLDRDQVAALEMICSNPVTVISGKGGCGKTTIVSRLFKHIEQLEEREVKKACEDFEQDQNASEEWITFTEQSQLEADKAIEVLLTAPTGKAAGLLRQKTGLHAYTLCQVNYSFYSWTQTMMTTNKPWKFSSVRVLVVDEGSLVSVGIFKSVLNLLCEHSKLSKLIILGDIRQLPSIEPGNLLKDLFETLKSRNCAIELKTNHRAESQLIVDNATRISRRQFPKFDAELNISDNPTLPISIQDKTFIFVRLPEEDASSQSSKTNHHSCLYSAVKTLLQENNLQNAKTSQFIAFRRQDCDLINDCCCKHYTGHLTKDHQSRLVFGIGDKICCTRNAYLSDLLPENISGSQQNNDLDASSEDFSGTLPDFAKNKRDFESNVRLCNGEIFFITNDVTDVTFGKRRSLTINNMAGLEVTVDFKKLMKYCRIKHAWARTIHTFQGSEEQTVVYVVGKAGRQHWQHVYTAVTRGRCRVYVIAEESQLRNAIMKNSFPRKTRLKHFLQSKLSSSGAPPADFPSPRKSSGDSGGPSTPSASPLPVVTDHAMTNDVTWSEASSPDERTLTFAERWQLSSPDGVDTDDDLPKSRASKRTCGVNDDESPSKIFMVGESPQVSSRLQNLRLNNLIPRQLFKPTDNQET

Chain of HELB (DNA helicase B);Human RPA (hRPA) (Q8NG08 whole entry, chain 1 of 4): as the sequence (Q8NG08 whole entry) above
Chain of HELB (DNA helicase B);Human RPA (hRPA) (P27694 whole entry, chain 2 of 4): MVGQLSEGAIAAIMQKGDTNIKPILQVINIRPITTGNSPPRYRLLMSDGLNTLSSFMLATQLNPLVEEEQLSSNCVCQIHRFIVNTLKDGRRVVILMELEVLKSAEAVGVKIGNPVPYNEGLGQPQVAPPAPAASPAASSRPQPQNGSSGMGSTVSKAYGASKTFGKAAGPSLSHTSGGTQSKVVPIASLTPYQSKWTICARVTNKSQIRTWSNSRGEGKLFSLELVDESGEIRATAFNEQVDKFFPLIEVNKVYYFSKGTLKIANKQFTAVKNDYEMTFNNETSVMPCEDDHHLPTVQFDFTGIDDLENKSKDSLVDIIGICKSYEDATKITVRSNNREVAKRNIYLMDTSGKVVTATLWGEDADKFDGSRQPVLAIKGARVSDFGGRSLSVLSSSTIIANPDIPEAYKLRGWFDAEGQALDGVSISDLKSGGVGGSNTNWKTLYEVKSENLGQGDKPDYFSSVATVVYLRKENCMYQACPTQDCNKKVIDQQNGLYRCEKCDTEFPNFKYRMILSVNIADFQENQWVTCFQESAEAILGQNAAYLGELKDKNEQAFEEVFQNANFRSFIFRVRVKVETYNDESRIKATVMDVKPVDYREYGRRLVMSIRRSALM
Chain of HELB (DNA helicase B);Human RPA (hRPA) (P15927 whole entry, chain 3 of 4): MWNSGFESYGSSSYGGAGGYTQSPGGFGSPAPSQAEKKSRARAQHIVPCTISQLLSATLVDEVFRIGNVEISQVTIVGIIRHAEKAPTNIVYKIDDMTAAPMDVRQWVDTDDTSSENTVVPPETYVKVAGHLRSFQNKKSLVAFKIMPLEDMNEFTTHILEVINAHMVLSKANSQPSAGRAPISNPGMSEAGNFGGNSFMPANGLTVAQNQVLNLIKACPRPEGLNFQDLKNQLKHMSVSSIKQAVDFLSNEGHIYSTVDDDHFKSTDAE
Chain of HELB (DNA helicase B);Human RPA (hRPA) (P35244 whole entry, chain 4 of 4): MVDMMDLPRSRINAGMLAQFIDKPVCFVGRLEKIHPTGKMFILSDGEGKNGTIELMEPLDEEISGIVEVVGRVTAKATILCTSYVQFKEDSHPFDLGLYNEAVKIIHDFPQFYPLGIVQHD
Chain of Human RPA (hRPA) (P27694 whole entry, chain 1 of 3): as the sequence (P27694 whole entry, chain 2 of 4) above
Chain of Human RPA (hRPA) (P15927 whole entry, chain 2 of 3): as the sequence (P15927 whole entry, chain 3 of 4) above
Chain of Human RPA (hRPA) (P35244 whole entry, chain 3 of 3): as the sequence (P35244 whole entry, chain 4 of 4) above

Binder | binding result [1] | binding result (Human RPA (hRPA)) | Kd (HELB (DNA helicase B)) [nM]
B1 | binds | binds | –
B2 | – | – | ~5
